Sequences and labels used below:
T1: refolding Vibrio harveyi luciferase (urea-denatured and diluted into refolding buffer) (Vibrio harveyi, UniProt P07740 1-355; P07739 1-324)
T1 construct: alpha subunit of the heterodimeric flavin monooxygenase luciferase of Vibrio harveyi; beta subunit of the heterodimeric flavin monooxygenase luciferase of Vibrio harveyi; In the assays the heterodimer was urea-denatured; also called luciferase subunits; source: E. coli (pET21b), purified (Ni-His Trap, Superdex 75); denatured in 5 M urea and diluted into buffer A; not shown: His tag (on the …)
T1 sequence (looked up) 1: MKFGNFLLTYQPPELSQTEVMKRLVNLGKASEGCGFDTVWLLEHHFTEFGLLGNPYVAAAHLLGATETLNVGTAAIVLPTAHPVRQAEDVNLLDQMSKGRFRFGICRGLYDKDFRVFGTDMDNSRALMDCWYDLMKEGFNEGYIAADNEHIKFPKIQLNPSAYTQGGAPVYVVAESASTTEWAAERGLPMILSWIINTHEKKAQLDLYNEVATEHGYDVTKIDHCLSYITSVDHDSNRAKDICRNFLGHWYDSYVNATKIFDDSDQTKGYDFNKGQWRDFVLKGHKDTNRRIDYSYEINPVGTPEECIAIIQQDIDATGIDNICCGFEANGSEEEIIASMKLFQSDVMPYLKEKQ
T1 sequence (looked up) 2: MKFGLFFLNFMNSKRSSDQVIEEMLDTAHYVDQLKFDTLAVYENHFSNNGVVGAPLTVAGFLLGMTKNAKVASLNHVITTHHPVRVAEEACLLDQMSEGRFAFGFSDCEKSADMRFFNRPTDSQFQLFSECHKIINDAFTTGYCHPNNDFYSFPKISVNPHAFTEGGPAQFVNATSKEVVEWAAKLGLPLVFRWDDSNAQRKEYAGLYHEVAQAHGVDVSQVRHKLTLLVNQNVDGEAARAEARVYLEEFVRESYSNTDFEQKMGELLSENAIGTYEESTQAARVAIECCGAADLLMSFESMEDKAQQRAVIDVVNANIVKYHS

B1: wild-type trigger factor (natural protein)
chain: MQVSVETTQGLGRRVTITIAADSIETAVKSELVNVAKKVRIDGFRKGKVPMNIVAQRYGASVRQDVLGDLMSRNFIDAIIKEKINPAGAPTYVPGEYKLGEDFTYSVEFEVYPEVELQGLEAIEVEKPIVEVTDADVDGMLDTLRKQQATWKEKDGAVEAEDRVTIDFTGSVDGEEFEGGKASDFVLAMGQGRMIPGFEDGIKGHKAGEEFTIDVTFPEEYHAENLKGKAAKFAINLKKVEERELPELTAEFIKRFGVEDGSVEGLRAEVRKNMERELKSAIRNRVKSQAIEGLVKANDIDVPAALIDSEIDVLRRQAAQRFGGNEKQALELPRELFEEQAKRRVVVGLLLGEVIRTNELKADEERVKGLIEEMASAYEDPKEVIEFYSKNKELMDNMRNVALEEQAVEAVLAKAKVTEKETTFNELMNQQA
notes: trigger factor, a bacterial ATP-independent chaperone; results are mapped onto the crystal structure pdb 1w26; Monomer-dimer equilibrium; predominantly monomeric under the conditions used (low uM, 0.26 M GdnHCl); also called TF; source: E. coli BL21 (DE3), purified (Ni-His Trap, ULP1 cleavage, HiTrap Q, Superdex 75); not shown: His-Sumo, N-terminal, cleaved
B2: Fluorescein-5-maleimide-labelled trigger factor E326C (natural protein)
chain: B1 chain with E326C
modifications: fluorescein-5-maleimide on the cysteine of E326C
notes: Labelling efficiency typically above 92%; also called fluorescently labelling trigger factor; source: E. coli BL21 (DE3), purified (Ni-His Trap, ULP1 cleavage, HiTrap Q, Superdex 75), labelled with fluorescein-5-maleimide; not shown: His-Sumo, N-terminal, cleaved
B3: Alexa Fluor 488-labelled GAPDH (enzyme)
chain: not shown
modifications: CF Fluor 488 A maleimide (called Alexa Fluor 488) on cysteine; the paper says only Cys 149 is solvent-exposed in the native tetramer
notes: glyceraldehyde 3-phosphate dehydrogenase, rabbit; Labelling efficiency typically above 98%; also called fluorophore labelled GAPDH; source: bought: Sigma-Aldrich (G2267), labelled with CF Fluor 488A maleimide, denatured in GdnHCl
B4: refolding glyceraldehyde 3-phosphate dehydrogenase (rabbit GAPDH, GdnHCl-denatured and diluted into refolding buffer) (enzyme)
chain: not shown
notes: glyceraldehyde 3-phosphate dehydrogenase, rabbit (rabbit-muscle GAPDH, pdb 1J0X); Native GAPDH is a tetramer; The protein from tissue likely lacks the initiator methionine (surmise); also called rGAPDH; source: bought: Sigma-Aldrich (G2267), purified rabbit GAPDH; denatured in 3 M GdnHCl and diluted into buffer A

For data set [1], the target named is T1, refolding Vibrio harveyi luciferase …. As to the kind of experiment: AUC; sedimentation velocity; 2 μM refolding luciferase alone or with 16 μM trigger factor; buffer A with 0.1 M urea, 4 °C, 35,000 r.p.m. The note with it: both partners purified.
The target in data set [2] is B4. As to the kind of experiment: AUC; sedimentation velocity; 5 μM refolding GAPDH alone or with 15 μM trigger factor; buffer A (0.1 M potassium phosphate pH 7.5, 0.1 M KCl, 1 mM TCEP) with 0.26 M GdnHCl, 4 °C, 40,000 r.p.m. The note with it: both partners purified.
The target in data set [3] is T1, refolding Vibrio harveyi luciferase …. As to the kind of experiment: fluorescence polarisation; anisotropy titration; 0.5 μM fluorescein-labelled trigger factor E326C titrated with urea-denatured luciferase; buffer A, 25 °C; hyperbola fit; apparent. Particulars: both partners purified.
The target in data set [4] is B1. Description: fluorescence polarisation; stopped-flow anisotropy; 0.13 μM labelled denatured GAPDH mixed with 0.13–3.24 μM trigger factor; 0.1 M potassium phosphate pH 7.6, 0.1 M KCl, 1 mM TCEP, 0.26 M GdnHCl, 4 °C; linear fit of kobs against trigger factor concentration. Particulars: both partners purified.
The target of data set [5] is B1. Description: cross-linking; XL-MS; 6 μM denatured GAPDH diluted into buffer A with equimolar trigger factor (0.26 M GdnHCl), 2 h on ice, then 2 mM disuccinimidyl dibutyric urea 2 h on ice; SDS–PAGE and LC–MS. Particulars: both partners purified.
Data set [6] has as its target B2. Description: fluorescence polarisation; anisotropy titration; 0.5 μM fluorescein-labelled trigger factor E326C titrated with GdnHCl-denatured GAPDH; buffer A, 4 °C; quadratic fit; apparent. Particulars: both partners purified.
Data set [7] concerns the molecule itself. Description: AUC; sedimentation velocity; 5 μM refolding GAPDH alone or with 15 μM trigger factor; buffer A (0.1 M potassium phosphate pH 7.5, 0.1 M KCl, 1 mM TCEP) with 0.26 M GdnHCl, 4 °C, 40,000 r.p.m.

Changes are numbered by the printed parent chain.

A word on the stoichiometry N: it is a count of units in the complex or per binding partner. On to B1, for which the “stoichiometry N” value in data set [1] and in data set [2] was 1 each time.
For the molecule B2, the Kd in data set [3] was 4500 nM.
Broadly, the koff is the rate constant with which the complex falls apart. A low value points to slow dissociation. Usually kon stands for the rate constant with which the complex forms. Read a high kon as faster complex formation. In the data set with wild-type trigger factor [4], B3 displayed a koff of 8.7 s⁻¹ and a kon of 6.6e+06 M⁻¹ s⁻¹.
For B4, the binding result (with wild-type trigger factor [5]; in data set [7]) was “binds” each time. The Kd in data set [6] came out at 320 nM.

For the origin of these results see paper PMC9287376 (Nature Communications, 2022).
